Data as given in patent US20260008815A1, “CYCLIC PEPTIDE OR SALT THEREOF, AND USES THEREOF” (FUJIFILM Corporation, priority 2023, published 2026).
Blank lines part the entries; values can stand above or below the substance they belong to. Bridge positions count the residues as written; N and C are the ends. Ends that are not written are not given here. COCH2 = acetyl group that carries the bridge

Target: T1, Recombinant Human FGFR2 alpha (IIIc) Fc Chimera Protein (Homo sapiens, UniProt P21802)
T1 construct: Fc (chimera); purchased R&D systems 712-FR-050
T1 sequence (P21802 with tags, fused parts or gaps limits assumed): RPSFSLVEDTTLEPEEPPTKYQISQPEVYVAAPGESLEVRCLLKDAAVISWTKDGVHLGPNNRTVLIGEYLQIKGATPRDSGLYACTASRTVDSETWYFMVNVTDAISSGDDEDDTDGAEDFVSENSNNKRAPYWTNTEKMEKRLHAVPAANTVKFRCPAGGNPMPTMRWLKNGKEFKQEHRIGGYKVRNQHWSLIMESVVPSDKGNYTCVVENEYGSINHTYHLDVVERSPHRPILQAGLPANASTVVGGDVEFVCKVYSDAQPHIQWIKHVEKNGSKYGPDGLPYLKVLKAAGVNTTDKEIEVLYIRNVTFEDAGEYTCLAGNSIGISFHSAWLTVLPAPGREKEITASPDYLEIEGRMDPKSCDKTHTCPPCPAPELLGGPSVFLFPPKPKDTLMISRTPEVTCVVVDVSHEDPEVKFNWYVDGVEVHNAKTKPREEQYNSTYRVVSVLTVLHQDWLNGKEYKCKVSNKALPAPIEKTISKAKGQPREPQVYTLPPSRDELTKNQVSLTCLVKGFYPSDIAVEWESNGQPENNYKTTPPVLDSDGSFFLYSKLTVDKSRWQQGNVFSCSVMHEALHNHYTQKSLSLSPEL
Experiment: ELISA binding affinity of enzymatically synthesized peptide to FGFR
Conditions: ELISA luminescence signal at 10 nmol/L peptide, SEQ ID NO: 47 at 10 nmol/L standardized to 1; enzyme synthesis product
In short: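 FGFR2 alpha (IIIc) Fc chimera (5 ng/well) was immobilized, and Myc-tagged peptide was bound 3 h at room temperature, then detected with anti-Myc antibody (2 h) and chemiluminescent substrate. Signal was corrected against FGFR-free wells. Score A–D was the luminescence at 10 nmol/L peptide, normalized to cyclic peptide SEQ ID NO: 47.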

Evaluation result of binding affinity to FGFR: A (0.7 or more)
Substance: 217 (YCEENYLTPEQYQYFIYFK(COCH2)Y; thioether 2-19 (inferred)) [compound 217]

Evaluation result of binding affinity to FGFR: C (0.1 or more and less than 0.5)
Substance: 219 (YCEENYLRPEQYQYFIYFK(COCH2)Y; thioether 2-19 (inferred)) [compound 219]

Evaluation result of binding affinity to FGFR: A (0.7 or more)
Substance: 220 (YCEENYLHPEQYQYFIYFK(COCH2)Y; thioether 2-19 (inferred)) [compound 220]

Evaluation result of binding affinity to FGFR: A (0.7 or more)
Substance: 225 (YCEENYLDFEQYQYFIYFK(COCH2)Y; thioether 2-19 (inferred)) [compound 225]

Evaluation result of binding affinity to FGFR: A (0.7 or more)
Substance: 228 (YCEENYLDNEQYQYFIYFK(COCH2)Y; thioether 2-19 (inferred)) [compound 228]

Evaluation result of binding affinity to FGFR: A (0.7 or more)
Substance: 231 (YCEENYLDTEQYQYFIYFK(COCH2)Y; thioether 2-19 (inferred)) [compound 231]

Evaluation result of binding affinity to FGFR: A (0.7 or more)
Substance: 232 (YCEENYLDDEQYQYFIYFK(COCH2)Y; thioether 2-19 (inferred)) [compound 232]

Evaluation result of binding affinity to FGFR: A (0.7 or more)
Substance: 233 (YCEENYLDEEQYQYFIYFK(COCH2)Y; thioether 2-19 (inferred)) [compound 233]

Evaluation result of binding affinity to FGFR: A (0.7 or more)
Substance: 234 (YCEENYLDREQYQYFIYFK(COCH2)Y; thioether 2-19 (inferred)) [compound 234]

Evaluation result of binding affinity to FGFR: C (0.1 or more and less than 0.5)
Substance: 236 (YCEENYLDPGQYQYFIYFK(COCH2)Y; thioether 2-19 (inferred)) [compound 236]

Evaluation result of binding affinity to FGFR: A (0.7 or more)
Substance: 237 (YCEENYLDPPQYQYFIYFK(COCH2)Y; thioether 2-19 (inferred)) [compound 237]

Evaluation result of binding affinity to FGFR: A (0.7 or more)
Substance: 240 (YCEENYLDPVQYQYFIYFK(COCH2)Y; thioether 2-19 (inferred)) [compound 240]

Evaluation result of binding affinity to FGFR: A (0.7 or more)
Substance: 243 (YCEENYLDPWQYQYFIYFK(COCH2)Y; thioether 2-19 (inferred)) [compound 243]

Evaluation result of binding affinity to FGFR: A (0.7 or more)
Substance: 247 (YCEENYLDPTQYQYFIYFK(COCH2)Y; thioether 2-19 (inferred)) [compound 247]

Evaluation result of binding affinity to FGFR: C (0.1 or more and less than 0.5)
Substance: 251 (YCEENYLDPEHYQYFIYFK(COCH2)Y; thioether 2-19 (inferred)) [compound 251]

Evaluation result of binding affinity to FGFR: A (0.7 or more)
Substance: 255 (YCEENYLDPEQWQYFIYFK(COCH2)Y; thioether 2-19 (inferred)) [compound 255]

Evaluation result of binding affinity to FGFR: A (0.7 or more)
Substance: 256 (YCEENYLDPEQHQYFIYFK(COCH2)Y; thioether 2-19 (inferred)) [compound 256]

Evaluation result of binding affinity to FGFR: A (0.7 or more)
Substance: 257 (YCEENYLDPEQYGYFIYFK(COCH2)Y; thioether 2-19 (inferred)) [compound 257]

The remaining lines, values behind:

Substance: 218 (YCEENYLEPEQYQYFIYFK(COCH2)Y; thioether 2-19 (inferred)) [compound 218]
Evaluation result of binding affinity to FGFR: A (0.7 or more)

Substance: 221 (YCEENYLDGEQYQYFIYFK(COCH2)Y; thioether 2-19 (inferred)) [compound 221]
Evaluation result of binding affinity to FGFR: A (0.7 or more)

Substance: 222 (YCEENYLDLEQYQYFIYFK(COCH2)Y; thioether 2-19 (inferred)) [compound 222]
Evaluation result of binding affinity to FGFR: A (0.7 or more)

Substance: 223 (YCEENYLDIEQYQYFIYFK(COCH2)Y; thioether 2-19 (inferred)) [compound 223]
Evaluation result of binding affinity to FGFR: A (0.7 or more)

Substance: 224 (YCEENYLDVEQYQYFIYFK(COCH2)Y; thioether 2-19 (inferred)) [compound 224]
Evaluation result of binding affinity to FGFR: A (0.7 or more)

Substance: 226 (YCEENYLDYEQYQYFIYFK(COCH2)Y; thioether 2-19 (inferred)) [compound 226]
Evaluation result of binding affinity to FGFR: A (0.7 or more)

Substance: 227 (YCEENYLDWEQYQYFIYFK(COCH2)Y; thioether 2-19 (inferred)) [compound 227]
Evaluation result of binding affinity to FGFR: A (0.7 or more)

Substance: 229 (YCEENYLDQEQYQYFIYFK(COCH2)Y; thioether 2-19 (inferred)) [compound 229]
Evaluation result of binding affinity to FGFR: A (0.7 or more)

Substance: 230 (YCEENYLDSEQYQYFIYFK(COCH2)Y; thioether 2-19 (inferred)) [compound 230]
Evaluation result of binding affinity to FGFR: A (0.7 or more)

Substance: 235 (YCEENYLDHEQYQYFIYFK(COCH2)Y; thioether 2-19 (inferred)) [compound 235]
Evaluation result of binding affinity to FGFR: A (0.7 or more)

Substance: 238 (YCEENYLDPLQYQYFIYFK(COCH2)Y; thioether 2-19 (inferred)) [compound 238]
Evaluation result of binding affinity to FGFR: A (0.7 or more)

Substance: 239 (YCEENYLDPIQYQYFIYFK(COCH2)Y; thioether 2-19 (inferred)) [compound 239]
Evaluation result of binding affinity to FGFR: A (0.7 or more)

Substance: 241 (YCEENYLDPFQYQYFIYFK(COCH2)Y; thioether 2-19 (inferred)) [compound 241]
Evaluation result of binding affinity to FGFR: A (0.7 or more)

Substance: 242 (YCEENYLDPYQYQYFIYFK(COCH2)Y; thioether 2-19 (inferred)) [compound 242]
Evaluation result of binding affinity to FGFR: A (0.7 or more)

Substance: 244 (YCEENYLDPNQYQYFIYFK(COCH2)Y; thioether 2-19 (inferred)) [compound 244]
Evaluation result of binding affinity to FGFR: A (0.7 or more)

Substance: 245 (YCEENYLDPQQYQYFIYFK(COCH2)Y; thioether 2-19 (inferred)) [compound 245]
Evaluation result of binding affinity to FGFR: A (0.7 or more)

Substance: 246 (YCEENYLDPSQYQYFIYFK(COCH2)Y; thioether 2-19 (inferred)) [compound 246]
Evaluation result of binding affinity to FGFR: A (0.7 or more)

Substance: 248 (YCEENYLDPDQYQYFIYFK(COCH2)Y; thioether 2-19 (inferred)) [compound 248]
Evaluation result of binding affinity to FGFR: A (0.7 or more)

Substance: 249 (YCEENYLDPRQYQYFIYFK(COCH2)Y; thioether 2-19 (inferred)) [compound 249]
Evaluation result of binding affinity to FGFR: A (0.7 or more)

Substance: 250 (YCEENYLDPHQYQYFIYFK(COCH2)Y; thioether 2-19 (inferred)) [compound 250]
Evaluation result of binding affinity to FGFR: A (0.7 or more)

Substance: 252 (YCEENYLDPEQLQYFIYFK(COCH2)Y; thioether 2-19 (inferred)) [compound 252]
Evaluation result of binding affinity to FGFR: C (0.1 or more and less than 0.5)

Substance: 253 (YCEENYLDPEQIQYFIYFK(COCH2)Y; thioether 2-19 (inferred)) [compound 253]
Evaluation result of binding affinity to FGFR: C (0.1 or more and less than 0.5)

Substance: 254 (YCEENYLDPEQFQYFIYFK(COCH2)Y; thioether 2-19 (inferred)) [compound 254]
Evaluation result of binding affinity to FGFR: A (0.7 or more)

Substance: 258 (YCEENYLDPEQYLYFIYFK(COCH2)Y; thioether 2-19 (inferred)) [compound 258]
Evaluation result of binding affinity to FGFR: A (0.7 or more)

Substance: 259 (YCEENYLDPEQYIYFIYFK(COCH2)Y; thioether 2-19 (inferred)) [compound 259]
Evaluation result of binding affinity to FGFR: A (0.7 or more)

Substance: 260 (YCEENYLDPEQYVYFIYFK(COCH2)Y; thioether 2-19) [compound 260]
Evaluation result of binding affinity to FGFR: A (0.7 or more)
